Measurements taken from patent US20140087995A1 (published 2014).
Numbered stars: 1 amine (or outer) side, 2 acyl side, 3 side chain; on linkers, the order of the positions; unused ones are H or OH. Bridge positions count the residues as written; N and C are the ends. Side chains are listed from the residue outwards. Ends that are not written are not given here. * marks the point of attachment. C20 diacid = O=C(O)CCCCCCCCCCCCCCCCCCC(=O)*; γGlu = O=C(O)[C@H](CCC(=O)[*:2])N[*:1]

Legend:
[1] = target: T1, rat calcitonin receptor (rat, UniProt P32214 25-516); experiment: SPA competition with 125I-calcitonin, membranes of BHK cells with rat CTR (Assay VIII)
T1 construct: whole, on cells; Used as membranes prepared from BHK tk'ts 13 cells transiently transfected with the rat calcitonin receptor (Assay VIII); also called rCTR; rat calcitonin (a) receptor
T1 sequence (looked up): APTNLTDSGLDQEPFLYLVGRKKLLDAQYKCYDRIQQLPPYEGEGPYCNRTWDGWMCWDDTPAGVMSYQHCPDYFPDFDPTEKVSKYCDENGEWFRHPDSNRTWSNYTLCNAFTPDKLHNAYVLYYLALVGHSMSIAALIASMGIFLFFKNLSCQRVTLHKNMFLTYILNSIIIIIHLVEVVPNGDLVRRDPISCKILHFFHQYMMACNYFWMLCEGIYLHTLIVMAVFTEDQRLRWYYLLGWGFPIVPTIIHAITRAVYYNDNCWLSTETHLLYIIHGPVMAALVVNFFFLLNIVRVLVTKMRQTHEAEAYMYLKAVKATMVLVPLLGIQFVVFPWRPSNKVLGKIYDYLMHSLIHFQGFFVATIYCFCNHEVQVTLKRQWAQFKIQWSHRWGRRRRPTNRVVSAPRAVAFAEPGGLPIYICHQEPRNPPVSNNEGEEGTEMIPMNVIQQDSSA

[2] = target: T2, rat amylin receptor (rat calcitonin receptor + rat RAMP 3) (rat, UniProt P32214 25-516; Q9JJ73 23-147); experiment: SPA competition with 125I-rat amylin, membranes of BHK cells with rat CTR + rat RAMP3 (Assay VI)
T2 construct: whole, on cells; Used as membranes prepared from BHK tk'ts 13 cells transiently transfected with rat calcitonin receptor and rat RAMP 3 (Assay VI); also called rAmylin-R; rat amylin 3(a) receptor
T2 sequence (looked up) 1: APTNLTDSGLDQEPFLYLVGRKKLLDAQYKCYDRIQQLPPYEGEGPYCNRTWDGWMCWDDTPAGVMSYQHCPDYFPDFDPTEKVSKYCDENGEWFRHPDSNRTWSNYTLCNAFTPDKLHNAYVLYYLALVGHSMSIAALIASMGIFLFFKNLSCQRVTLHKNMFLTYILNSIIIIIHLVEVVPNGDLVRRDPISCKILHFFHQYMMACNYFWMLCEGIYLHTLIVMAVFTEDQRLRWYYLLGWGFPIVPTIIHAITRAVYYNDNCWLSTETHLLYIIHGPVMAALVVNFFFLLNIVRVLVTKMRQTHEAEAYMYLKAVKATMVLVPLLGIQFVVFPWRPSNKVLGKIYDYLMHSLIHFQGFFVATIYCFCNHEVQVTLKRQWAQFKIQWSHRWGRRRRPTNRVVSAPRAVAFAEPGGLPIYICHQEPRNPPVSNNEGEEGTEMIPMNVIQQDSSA
T2 sequence (looked up) 2: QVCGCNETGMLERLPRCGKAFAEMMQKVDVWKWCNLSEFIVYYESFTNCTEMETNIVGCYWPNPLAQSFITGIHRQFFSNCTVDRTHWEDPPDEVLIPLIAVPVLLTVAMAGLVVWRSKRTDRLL
Protocol: The binding assay was performed using scintillation proximity assay (SPA) beads (RPNQ0001) from PerkinElmer and cell membranes from the Amylin 3(a)/CRE-luc cells (as described in Assay (II)) were used. Membranes were prepared in the following way; the cells were rinsed with PBS and incubated with Versene for approximately 5 min before harvesting. The cells were flushed with PBS and the cell-suspension was centrifuged for 5 min at 1000 rpm. Cells were homogenized (ultrathurrax) in a buffer containing 20 mM Na-HEPES and 10 mM EDTA (pH 7.4) and centrifuged at 20.000 rpm for 15 min. The resulting pellet was resuspended, homogenized and centrifuged (20.000 rpm, 15 min) in a buffer containing 20 mM Na-HEPES and 0.1 mM EDTA (pH 7.4, buffer 2). The resulting pellet was resuspended in buffer 2 and protein concentration was measured (BCA protein Assay, Pierce). The homogenate was kept cold during the whole procedure. The membranes were kept at −80° C. until use. The assay was performed in a 384 well Optiplate (PerkinElmer) in a total volume of 40 ul. Membranes were mixed with SPA beads. Final concentration of membranes 35 ng/μL final and SPA beads was 0.05 mg/well. Test-compounds were dissolved in DMSO and further diluted in assay buffer (50 mM Hepes, pH 7.4, 1 mM CaCl2, 5 mM MgCl₂, 0.1% OA and 0.02% Tween20). […] The final mixture was incubated with shaking at 400 rpm for 120 min at 25° C. prior to centrifugation (1500 rpm, 10 min). Samples were analyzed on TopCounter™ (Packard). The IC₅₀ was calculated using (one site binding competition analysis) GraphPad Prism5 as a measure of receptor affinity.
Cells were grown in DMEM with 10% FBS and 1% Pen/Strep. Approximately 48 hours after transfection, the cells were harvested and membranes were prepared.

B1: N^ε1-[(4S)-4-carboxy-4-[[(4S)-4-carboxy-4-(19-carboxynonadecanoylamino)butanoyl]amino]butanoyl]-[Asp14,Arg17,Pro21,Pro27,Arg35]-h-amylin (peptide)
peptide: K([γGlu-γGlu-C20 diacid])CNTATCATQRLADFLRHSSPNFGAIPSSTNVGSRTY-NH2
modifications: disulfide 2-7; N-terminus assumed
SMILES: CC[C@H](C)[C@H](NC(=O)[C@H](C)NC(=O)CNC(=O)[C@H](Cc1ccccc1)NC(=O)[C@H](CC(N)=O)NC(=O)[C@@H]1CCCN1C(=O)[C@H](CO)NC(=O)[C@H](CO)NC(=O)[C@H](Cc1c[nH]cn1)NC(=O)[C@H](CCCNC(=N)N)NC(=O)[C@H](CC(C)C)NC(=O)[C@H](Cc1ccccc1)NC(=O)[C@H](CC(=O)O)NC(=O)[C@H](C)NC(=O)[C@H](CC(C)C)NC(=O)[C@H](CCCNC(=N)N)NC(=O)[C@H](CCC(N)=O)NC(=O)[C@@H](NC(=O)[C@H](C)NC(=O)[C@@H]1CSSC[C@H](NC(=O)[C@@H](N)CCCCNC(=O)CC[C@H](NC(=O)CC[C@H](NC(=O)CCCCCCCCCCCCCCCCCCC(=O)O)C(=O)O)C(=O)O)C(=O)N[C@@H](CC(N)=O)C(=O)N[C@@H]([C@@H](C)O)C(=O)N[C@@H](C)C(=O)N[C@@H]([C@@H](C)O)C(=O)N1)[C@@H](C)O)C(=O)N1CCC[C@H]1C(=O)N[C@@H](CO)C(=O)N[C@@H](CO)C(=O)N[C@H](C(=O)N[C@@H](CC(N)=O)C(=O)N[C@H](C(=O)NCC(=O)N[C@@H](CO)C(=O)N[C@@H](CCCNC(=N)N)C(=O)N[C@H](C(=O)N[C@@H](Cc1ccc(O)cc1)C(N)=O)[C@@H](C)O)C(C)C)[C@@H](C)O
notes: Analogue of human amylin; also called compound 52
B1 showed an IC50 [1] of 159 nM and an IC50 [2] of 0.335 nM.
